Reference: paper doi:10.1101/2024.01.23.576890 (bioRxiv, 2024)

Molecular target: native OspA on the surface of live B. burgdorferi B31 (Borrelia burgdorferi strain B31 …, UniProt P0CL66)
Assay: flow cytometry on cells

Sequence of native OspA on the surface of live B. burgdorferi B31 (P0CL66 17-273): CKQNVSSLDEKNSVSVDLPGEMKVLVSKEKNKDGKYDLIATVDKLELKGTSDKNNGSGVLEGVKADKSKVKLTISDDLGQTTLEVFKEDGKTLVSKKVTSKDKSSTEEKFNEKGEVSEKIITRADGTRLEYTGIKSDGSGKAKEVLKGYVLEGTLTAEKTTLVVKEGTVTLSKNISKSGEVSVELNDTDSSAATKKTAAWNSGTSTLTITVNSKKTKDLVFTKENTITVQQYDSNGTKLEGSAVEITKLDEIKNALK

B1: LA-2 (bin 3 OspA monoclonal antibody; chimeric LA-2 IgG1) (antibody, V domains shown)
VH: QIQLVQSGPELKKPGETVKISCKASGYTFTDYSMYWVKQAPGKGLKRMGWINTETGEPTYADDFKGRFALSLDTSASTAYLHISNLKNEDTATYFCARGLDSWGQGTSVTVSS
VL: DIQMTQSPSSLSATLGGKVTITCKASQDINKYIAWYQHKPGKGPRLLIHYTSTLQPGNPSRFSGSGSGRDYSFSISNLEAEDIAIYYCLQYDNLQRTFGGGTKVEIK
- binding result: binds
